Source: patent US20240058464A1 (Fortis Therapeutics, Inc., priority 2021, published 2024)

Test system: CD46 expression
Assay: CD46 expression by RNA-sequencing in unpaired pre-treatment and post-treatment tumor biopsies
Type: in vivo, human
Conditions: for CD46 expression diff: Post minus Pre, unpaired biopsies, log2-transformed counts; for CD46 expression Percentage change: post- vs pre-treatment unpaired biopsies; for CD46 expression Post: post-treatment biopsies, unpaired, RNA-seq log2-transformed normalized counts

B1: filgrastim (protein, chains of the INN, looked up)
chain: MTPLGPASSLPQSFLLKCLEQVRKIQGDGAALQEKLCATYKLCHPEELVLLGHSLGIPWAPLSSCPSQALQLAGCLSQLHSGLFLYQGLLQALEGISPELGPTLDTLQLDVADFATTIWQQMEELGMAPALQPTQGAMPAFASAFQRRAGGVLVASHLQSFLEVSYRVLRHLAQP
CD46 expression diff (Breast Cancer): 0.02
CD46 expression Percentage change (Breast Cancer): 0.3%
CD46 expression Post (Breast Cancer): 6.23

B2: pegfilgrastim (protein, chains of the INN, looked up)
chain: TPLGPASSLPQSFLLKCLEQVRKIQGDGAALQEKLCATYKLCHPEELVLLGHSLGIPWAPLSSCPSQALQLAGCLSQLHSGLFLYQGLLQALEGISPELGPTLDTLQLDVADFATTIWQQMEELGMAPALQPTQGAMPAFASAFQRRAGGVLVASHLQSFLEVSYRVLRHLAQP
modifications: PEG
CD46 expression diff (Breast Cancer): −0.13
CD46 expression Percentage change (Breast Cancer): −2.1%
CD46 expression Post (Breast Cancer): 6.25
CD46 expression diff (Colorectal Cancer): 0.29
CD46 expression Percentage change (Colorectal Cancer): 4.6%
CD46 expression Post (Colorectal Cancer): 6.62
CD46 expression diff (Non-Small Cell Lung Cancer): 0.07
CD46 expression Percentage change (Non-Small Cell Lung Cancer): 1.2%
CD46 expression Post (Non-Small Cell Lung Cancer): 6.06
